Results on one molecule are retold here after patent US20180037644A1 (Pfizer, published 2018).

The target in experiment [1] is T1, human IL-33 (mm2) (human, UniProt O95760 112-270).
T1 construct: Variant in which all four cysteine residues are serine; the entry carries an N-terminal Met and a C-terminal His6; Biotinylated in some assays; also called hIL-33 (mm2); huIL-33 (mm2)
T1 chain: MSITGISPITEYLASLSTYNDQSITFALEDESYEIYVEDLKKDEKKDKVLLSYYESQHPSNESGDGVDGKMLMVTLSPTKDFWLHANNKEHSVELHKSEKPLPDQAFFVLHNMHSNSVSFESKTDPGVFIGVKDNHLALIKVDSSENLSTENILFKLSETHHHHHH
Put plainly: SPR, IL-33 amine-coupled to CM5, Fab in solution, 37 C. On the procedure: (§1) Biacore kinetic assays were conducted at 37° C. at a collection rate of 1 Hz on a Biacore T200 instrument (GE Healthcare). Human IL33 (mm2), cynomolgus monkey IL-33, and reduced huIL33 wt were covalently coupled to a CM5 sensor chip (catalogue number BR100530, GE Healthcare) using an amine coupling kit (catalogue number BR100050, GE Healthcare) according to the manufacturer's protocol. […] The dilution and running buffer was HBS-EP+(10 mM HEPES pH 7.4, 0.15M NaCl, 3 mM EDTA, 0.05% P-20). Rate constants and affinities were determined by fitting the resulting sensorgram data to a 1:1 model in Biacore T200 Evaluation software version 1.0 (GE Healthcare).
A general note: SPR reads the build-up and loss of mass on a sensor chip optically.

The target in experiment [2] is T2, human IL-33 WT, reduced with DTT (human, UniProt O95760 112-270).
T2 construct: Wild-type cysteines, FLAG tag in the entry; reduced with 3 mM DTT before use; also called huIL33 wt; hu IL-33 (WT + DTT)
T2 sequence: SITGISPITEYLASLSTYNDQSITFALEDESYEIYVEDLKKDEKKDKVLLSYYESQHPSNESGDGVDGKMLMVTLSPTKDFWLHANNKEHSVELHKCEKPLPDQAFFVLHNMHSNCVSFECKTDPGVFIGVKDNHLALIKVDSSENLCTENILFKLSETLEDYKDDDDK
The description is as above. On the procedure: as §1

The target of experiment [3] is T3, cynomolgus monkey IL-33 (cys mut) (cynomolgus monkey).
T3 construct: Variant in which the three cysteine residues are serine; N-terminal Met and C-terminal His6 in the entry; also called cyno IL-33; cyno IL-33 (cys mut)
T3 chain: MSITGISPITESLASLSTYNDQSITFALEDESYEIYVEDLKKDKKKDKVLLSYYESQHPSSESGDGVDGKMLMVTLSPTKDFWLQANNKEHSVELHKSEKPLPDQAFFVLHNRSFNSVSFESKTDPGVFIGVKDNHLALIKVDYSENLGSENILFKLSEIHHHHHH
The description is as above. The protocol: as §1

Experiment [4] has as its target T1, human IL-33 (mm2). Put plainly: SPR, biotinylated IL-33 on streptavidin sensor, Fab in solution. The protocol:
Fab fragment affinity was measured by two methods, surface plasmon resonance using a BIAcore instrument, with either Fab or IL-33 captured on the chip, and solution equilibrium affinity measurements using a KinExA instrument, with both Fab and IL-33 in solution.
(§2) Surface plasmon resonance experiments were conducted in two formats.

The target in the next experiment is T4, IL-1α (UniProt P01583 113-271).
T4 sequence (looked up): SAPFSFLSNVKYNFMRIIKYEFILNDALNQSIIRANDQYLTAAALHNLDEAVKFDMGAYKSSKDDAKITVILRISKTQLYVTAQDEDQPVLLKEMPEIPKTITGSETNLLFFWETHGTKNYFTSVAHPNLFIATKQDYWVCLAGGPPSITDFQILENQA
The experiment is described as follows: SPR (Biacore T200), Fab captured on the chip, cytokine injected. From the text: (§3) The panel of cytokines included IL-1α, IL-1β, IL-18, IL-36α, and IL-36γ.

The target of another experiment is IL-1β (UniProt P01584 117-269). The description is as above.
Excerpt: as §3

In the next experiment the target is T5, IL-18 (UniProt Q14116 37-193).
T5 sequence (looked up): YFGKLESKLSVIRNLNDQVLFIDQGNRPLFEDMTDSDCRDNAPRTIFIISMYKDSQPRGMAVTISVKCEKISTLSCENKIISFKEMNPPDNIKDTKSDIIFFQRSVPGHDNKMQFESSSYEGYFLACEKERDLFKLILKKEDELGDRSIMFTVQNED
The experiment is described as above.
Excerpt: as §3

For a further experiment, the target named is T6, IL-36α (UniProt Q9UHA7 6-158).
T6 sequence (looked up): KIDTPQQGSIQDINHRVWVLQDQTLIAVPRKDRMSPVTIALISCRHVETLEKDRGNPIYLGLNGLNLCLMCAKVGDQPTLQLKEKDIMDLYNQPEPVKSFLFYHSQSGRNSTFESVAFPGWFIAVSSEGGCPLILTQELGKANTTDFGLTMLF
Described as above.
Excerpt: as §3

A further experiment addresses T7, IL-36γ (UniProt Q9NZH8 18-169).
T7 sequence (looked up): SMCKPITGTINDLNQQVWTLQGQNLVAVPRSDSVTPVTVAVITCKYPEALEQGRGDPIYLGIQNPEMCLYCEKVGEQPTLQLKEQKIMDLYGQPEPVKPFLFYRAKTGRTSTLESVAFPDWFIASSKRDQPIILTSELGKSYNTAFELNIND
The description is as above.
Excerpt: as §3

Experiment [5] has as its target T1, human IL-33 (mm2). Put plainly: SPR, biotinylated IL-33 on streptavidin sensor, Fab in solution; immobilized IL-33 (mm2); Fab in solution. On the procedure: as §2

B1: 7E8 CDR graft Fab (Fab, V domains shown)
VH: EVQLVESGGGLVQPGGSLRLSCAASGFTFSSYWMYWVRQAPGKGLEWVASITPNGGNTYYPDSVKGRFTISRDNAKNSLYLQMNSLRAEDTAVYYCARGHYYYTSYSLGYWGQGTLVTVSS
VL: DIQMTQSPSSLSASVGDRVTITCKASQNINKHLDWYQQKPGKAPKLLIYFTNNLQTGVPSRFSGSGSGTDFTLTISSLQPEDFATYYCFQYNNGWTFGGGTKVEIKR
notes: also called 7E8 Fab; CDR grafted-7E8 Fab
Take B1: the dissociation constant Kd (in general, the equilibrium constant for the complex coming apart) with human IL-33 (mm2) [1] was 0.0155 nM; in experiment [2] it was 0.0191 nM; in [3] it was 0.0144 nM; with human IL-33 (mm2) [4] it was 0.00306 nM. For the same molecule, the koff (usually the first-order rate constant of dissociation) with human IL-33 (mm2) [1] came to 4.17e-05 s⁻¹; in experiment [2], 5.79e-05 s⁻¹; in experiment [3], 4.07e-05 s⁻¹; with human IL-33 (mm2) [4], 1.68e-05 s⁻¹. Also, the kon – broadly, a measure of how fast the partners come together – was 2.74e+06 M⁻¹ s⁻¹ in the experiment with human IL-33 (mm2) [1], 3.05e+06 M⁻¹ s⁻¹ in experiment [2], 2.81e+06 M⁻¹ s⁻¹ in [3] and 5.47e+06 M⁻¹ s⁻¹ with human IL-33 (mm2) [5]. The binding result in the experiment with IL-1α, with IL-1β, with IL-18, with IL-36α and with IL-36γ was “no binding” in each case.
